{"source": "paper PMC10360031", "key": {"[1]": {"target": "recombinant human Vim (human) (UniProt P08670)", "sequence (P08670 whole entry)": "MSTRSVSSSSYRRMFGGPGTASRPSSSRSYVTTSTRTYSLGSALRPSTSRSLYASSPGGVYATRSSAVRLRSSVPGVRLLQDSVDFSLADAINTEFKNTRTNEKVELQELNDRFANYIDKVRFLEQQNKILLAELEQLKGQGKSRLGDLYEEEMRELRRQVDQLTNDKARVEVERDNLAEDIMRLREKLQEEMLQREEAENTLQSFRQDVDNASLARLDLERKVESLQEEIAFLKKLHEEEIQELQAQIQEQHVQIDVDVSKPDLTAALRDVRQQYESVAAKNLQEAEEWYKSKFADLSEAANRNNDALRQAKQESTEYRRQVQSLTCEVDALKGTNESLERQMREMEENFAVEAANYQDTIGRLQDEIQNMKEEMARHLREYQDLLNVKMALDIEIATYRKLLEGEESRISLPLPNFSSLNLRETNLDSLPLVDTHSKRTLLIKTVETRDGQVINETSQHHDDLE", "assay": "AFM single-molecule force spectroscopy"}, "[2]": {"target": "recombinant human Vim (human) (UniProt P08670)", "assay": "quartz crystal microbalance with dissipation (QCM-D)"}, "[3]": {"target": "recombinant human Vim (human) (UniProt P08670)", "assay": "quartz crystal microbalance with dissipation (QCM-D); pH 7.4"}}, "data": [{"substance": "wild-strain SARS-CoV-2 spike protein RBD (from UniProt P0DTC2) (domain or fragment)", "values": [{"measurement": "binding probability (specific adhesion events) (% of force curves)", "setting": "[1]", "value": "< 20"}, {"measurement": "rupture force at 5 um/s", "setting": "[1]", "value": 58, "unit": "pN"}, {"measurement": "Ka (equilibrium adsorption constant), fraction I", "setting": "[2]", "value": 0.0011, "unit": "cm"}, {"measurement": "Ka (equilibrium adsorption constant), fraction II", "setting": "[2]", "value": 0.46, "unit": "cm"}, {"measurement": "Keq, fraction I", "setting": "[2]", "value": "4.7e+06", "unit": "L mol^–1"}, {"measurement": "Keq, fraction II", "setting": "[2]", "value": "9.2e+08", "unit": "L mol^–1"}, {"measurement": "desorption time, loosely bound fraction", "setting": "[2]", "value": 200, "unit": "s"}, {"measurement": "desorption time, tightly bound fraction", "setting": "[2]", "value": "> 10000", "unit": "s"}, {"measurement": "kd' (desorption constant), fraction I", "setting": "[2]", "value": 0.063, "unit": "s^–1"}, {"measurement": "kd' (desorption constant), fraction II", "setting": "[2]", "value": 0.00015, "unit": "s^–1"}, {"measurement": "adsorbed amount", "setting": "[3]", "value": 1, "unit": "mg m^–2"}]}]}
